Data: article PMC9852558 (The Journal of Biological Chemistry, 2022)
Blank lines part the entries; values can stand above or below the binder they belong to.

Assays:
Experiment in all cases: SPR
FGFR1 (IIIb) = FGFR1 (IIIb) (Homo sapiens, FGFR1 splice form IIIb, UniProt P11362, strain)
FGFR2 (IIIb) = FGFR2 (IIIb) (Homo sapiens (assumed), UniProt P21802-3)
FGFR4 = FGFR4 (Homo sapiens (assumed), UniProt P22455)
FGFR3 (IIIb) = FGFR3 (IIIb) (Homo sapiens (assumed), UniProt P22607-2)
FGFR1β (IIIc)/Fc = FGFR1β (IIIc)/Fc (Homo sapiens, UniProt P11362, strain, biotinylated)

Chain of FGFR1 (IIIb) (P11362 whole entry, looked up, change not shown, canonical isoform): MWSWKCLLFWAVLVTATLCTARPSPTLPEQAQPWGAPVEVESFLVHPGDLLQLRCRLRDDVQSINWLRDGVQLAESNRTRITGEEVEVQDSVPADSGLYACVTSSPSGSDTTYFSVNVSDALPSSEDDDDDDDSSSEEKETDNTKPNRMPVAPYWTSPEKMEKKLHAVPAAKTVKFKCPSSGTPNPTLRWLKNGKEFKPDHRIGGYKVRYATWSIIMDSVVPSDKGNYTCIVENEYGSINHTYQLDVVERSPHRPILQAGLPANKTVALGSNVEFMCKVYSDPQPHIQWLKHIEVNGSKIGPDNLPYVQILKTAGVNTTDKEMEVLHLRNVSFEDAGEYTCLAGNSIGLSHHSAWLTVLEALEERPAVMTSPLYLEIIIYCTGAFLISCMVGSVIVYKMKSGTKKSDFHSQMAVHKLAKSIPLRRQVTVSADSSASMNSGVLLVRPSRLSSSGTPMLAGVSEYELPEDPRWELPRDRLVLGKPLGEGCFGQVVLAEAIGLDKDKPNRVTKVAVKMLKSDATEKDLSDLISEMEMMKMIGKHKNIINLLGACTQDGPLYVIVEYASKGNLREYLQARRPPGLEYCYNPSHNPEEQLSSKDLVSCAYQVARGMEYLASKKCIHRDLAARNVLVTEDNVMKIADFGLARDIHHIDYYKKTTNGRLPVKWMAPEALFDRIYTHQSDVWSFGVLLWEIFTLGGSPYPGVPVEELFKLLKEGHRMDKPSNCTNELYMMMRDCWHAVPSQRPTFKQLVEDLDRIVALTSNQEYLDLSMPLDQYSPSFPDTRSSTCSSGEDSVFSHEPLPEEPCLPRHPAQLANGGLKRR
Chain of FGFR4 (P22455 22-802): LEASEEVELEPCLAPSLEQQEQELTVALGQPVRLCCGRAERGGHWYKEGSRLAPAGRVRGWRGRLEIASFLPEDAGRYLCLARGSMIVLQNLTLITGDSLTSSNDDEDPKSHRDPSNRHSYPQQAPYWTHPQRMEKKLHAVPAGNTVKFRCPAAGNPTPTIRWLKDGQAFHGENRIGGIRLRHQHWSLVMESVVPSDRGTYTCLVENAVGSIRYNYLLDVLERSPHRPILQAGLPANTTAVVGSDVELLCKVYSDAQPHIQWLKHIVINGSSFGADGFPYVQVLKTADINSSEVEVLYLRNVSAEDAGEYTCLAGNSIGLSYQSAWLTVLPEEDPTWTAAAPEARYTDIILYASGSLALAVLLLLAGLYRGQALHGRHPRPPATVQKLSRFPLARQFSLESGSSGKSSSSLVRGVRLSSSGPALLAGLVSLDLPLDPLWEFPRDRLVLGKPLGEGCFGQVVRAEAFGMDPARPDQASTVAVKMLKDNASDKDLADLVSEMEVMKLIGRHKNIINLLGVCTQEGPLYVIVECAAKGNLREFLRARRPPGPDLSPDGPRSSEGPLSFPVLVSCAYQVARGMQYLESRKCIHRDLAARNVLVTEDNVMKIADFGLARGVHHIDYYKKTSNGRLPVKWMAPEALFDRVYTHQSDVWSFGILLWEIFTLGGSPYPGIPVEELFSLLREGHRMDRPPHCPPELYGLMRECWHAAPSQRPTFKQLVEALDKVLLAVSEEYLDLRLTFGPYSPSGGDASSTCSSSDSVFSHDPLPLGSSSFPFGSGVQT

Kd (FGFR1 (IIIb)): 92.8 nM | koff (FGFR1 (IIIb)): 0.0254 s⁻¹ | kon (FGFR1 (IIIb)): 274000 M⁻¹ s⁻¹ | binding result (FGFR2 (IIIb)): no binding | Kd (FGFR4): 22.2 nM | koff (FGFR4): 0.0527 s⁻¹ | kon (FGFR4): 2.37e+06 M⁻¹ s⁻¹ | binding result (FGFR3 (IIIb)): no binding | Kd (FGFR1β (IIIc)/Fc): 1.74 nM | koff (FGFR1β (IIIc)/Fc): 0.00142 s⁻¹ | kon (FGFR1β (IIIc)/Fc): 819000 M⁻¹ s⁻¹
B1: clone VM34 (VHH)
VHH: QLQLVESGGGSVQAGGSLRLSCAASRSLSRFNVWTWYRQAPVKQRELVASITKSGDTNYAESVKGRFIISRDDDKNTVYLQMNNLKSEDTGIYYCAGSYYSGSYLYPSPGGFSVWGQGTQVTVSS

Kd (FGFR1β (IIIc)/Fc): 1.02 nM | koff (FGFR1β (IIIc)/Fc): 0.00114 s⁻¹ | kon (FGFR1β (IIIc)/Fc): 1.11e+06 M⁻¹ s⁻¹
B2: clone VM35 (VHH)
VHH: QVQLVESGGGLVQAGGSLRLSCAVPGSIFRFNTMGWYRQPPGKQRELVAQMSRGGITKYGDSVKGRFTITRDNAKNTVHLQMNSLKPEDTAVYYCAGSYYSGSYYYPSPQGFSVWGQGTQVTVSP
